The values below come from article doi:10.1101/2023.06.19.545627v1, “Pharmacokinetic profile of the synthetic mu-opioid receptor agonist [Lys7]Dermorphin-IRDye®800CW and its feasibility as a biomarker for opioid use disorder” (bioRxiv, 2023).

For series [1], the system named is CHO-K1 cells expressing MOR. As to the kind of experiment: Wide field fluorescence microscopy of DRM-800 binding and internalization. The class given is cell-based, Chinese hamster. An excerpt:
Cells were visualized using a Zeiss LSM 800 inverted microscope with a Generation III 750 nm laser light source (Lumencor, Inc., Beaverton, OR) and a Zeiss Plan-Apochromat 20×/0.8 M27 objective lens. The filters used for imaging DRM-800 were 740 nm for excitation, 770 nm dichroic and 780 nm longpass for emission (Filter Set 49037, Chroma Technology Corp., Bellows Falls, VT). Acquisition of micrographs was accomplished using a digital CMOS Camera (C114400-22CU, Hamamatsu Photonics K.K.) with a 2×2 pixel binning. Images were processed in ImageJ FIJI, windowed and leveled identically across samples, and then adjusted step-wise until cells are visible, with each image being shown for transparency.
Wide field fluorescence microscopy (Fig. 3) was used to study the binding and internalization of DRM-800 to stably expressed MORs in the membrane of transfected CHO-K1 cells.

In the next series the target is MOR (Mus musculus, UniProt P42866). The series can be described thus: Whole body biodistribution by cryo-macrotome fluorescence imaging, wildtype vs MOR knockout. Conditions: 1 hour after IV injection.
Series [2] is described as follows: Plasma pharmacokinetics by direct carotid artery fluorescence imaging after intravenous injection. Particulars: for Plasma half-life (time in which the concentration of dye is 50% of initial) / Distribution (α) half-life / Elimination (β) half-life: IV; for Distribution (α) half-life / Elimination (β) half-life: biexponential; for Distribution (α) half-life / Elimination (β) half-life / Distribution rate, b / Elimination rate, d: value (95% CI); for Distribution rate, b / Elimination rate, d: biexponential fit.

[3] abbreviates: MOR-knockout mice, n = 4, 1 nmol IV tail vein coinjection with IRDye700DX.
The mark [4] stands for this setting: wildtype mice, n = 4, 1 nmol IV tail vein coinjection with IRDye700DX, imaged 1 hour.
Setting [5] is: rate constants did not differ between groups (wildtype and MOR-knockout mice), 1 nmol IV coinjection with DRM-800.

Chain of MOR (P42866 whole entry, looked up): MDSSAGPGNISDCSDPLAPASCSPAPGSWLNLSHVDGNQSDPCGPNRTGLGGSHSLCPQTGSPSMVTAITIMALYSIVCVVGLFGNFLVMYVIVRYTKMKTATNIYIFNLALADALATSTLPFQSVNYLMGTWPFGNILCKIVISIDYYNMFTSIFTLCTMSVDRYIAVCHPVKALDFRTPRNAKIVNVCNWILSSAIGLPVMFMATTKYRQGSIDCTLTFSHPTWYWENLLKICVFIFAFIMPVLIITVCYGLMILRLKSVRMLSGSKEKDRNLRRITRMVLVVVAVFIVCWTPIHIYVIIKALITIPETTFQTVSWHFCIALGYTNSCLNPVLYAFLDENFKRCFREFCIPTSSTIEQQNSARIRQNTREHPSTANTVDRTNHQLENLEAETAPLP

For `C[C@@H](NC(=O)[C@@H](N)Cc1ccc(O)cc1)C(=O)N[C@@H](Cc1ccccc1)C(=O)NCC(=O)N[C@@H](Cc1ccc(O)cc1)C(=O)N1CCC[C@H]1C(=O)N[C@@H](CCCCN)C(=O)N[C@@H](CSC1CC(=O)N(CCNC(=O)CCCCC[N+]2=C(/C=C/C3=C(Oc4ccc(S(=O)(=O)O)cc4)C(=C/C=C4/N(CCCCS(=O)(=O)O)c5ccc(S(=O)(=O)O)cc5C4(C)C)/CCC3)C(C)(C)c3cc(S(=O)(=O)[O-])ccc32)C1=O)C(N)=O` (stereo partly drawn) [DRM-800, IRDye®800CW-labelled YdAFGYPKC-NH2], the “Binding and internalization seen by fluorescence microscopy” value in series [1] (2 nM and 25 nM, 35°C, 30 min of incubation, no sucrose) is listed as “plasma membrane fluorescence as well as fluorescent puncta of high intensity in the perinuclear region of the cytoplasm were observable”. Also, the “Binding and internalization seen by fluorescence microscopy with internalization inhibited” value in series [1] (4C with addition of sucrose (0.35 M)) is “fluorescence was distinctly observed at the plasma membrane and intracellular puncta was greatly reduced”. Also, in the series with MOR (cryo-macrotome ROI analysis), the “Fluorescence in small and large intestine, wildtype compared with knockout” value is listed as “elevated levels of DRM-800 compared with knockout mice”; the “Ratio of average fluorescence wildtype vs knockout, dorsal root ganglion” value came to 1.8 ± 0.05; the “Ratio of average fluorescence wildtype vs knockout, left spiral ganglion” value was 2.2 ± 0.2; the “Ratio of average fluorescence wildtype vs knockout, right spiral ganglion” value worked out at 2.9 ± 0.3. Moreover, the “Ratio of average fluorescence wildtype vs knockout, trigeminal ganglion” value with MOR (cryo-macrotome ROI analysis) was 3.1 ± 0.2. For the same compound, the “Fluorescence signal in brain” value with MOR (either group of mice (wildtype, knockout)) is “did not observe any appreciable signal”. Besides, in series [2] (MOR knockout mice), the “Plasma half-life (time in which the concentration of dye is 50% of initial)” value turned out to be 12.6 min, the “Distribution (α) half-life” value is listed as 6.2 (4.9 - 8.6) min and the “Elimination (β) half-life” value is reported as 45 (33–68) min. In series [2] (setting [3]), the “Distribution rate, b” value is on record as 0.11 (0.08-0.14) min^−1 and the “Elimination rate, d” value was 0.0155 (0.0102 - 0.0202) min^−1. The “Plasma half-life following intravenous injection” value in series [2] (mice (abstract summary over wildtype and knockout)) is 8 to 12 min. Moreover, in series [2] (wildtype mice), the “Plasma half-life (time in which the concentration of dye is 50% of initial)” value stood at 7.95 min, the “Distribution (α) half-life” value is recorded as 3.3 (3.1-3.5) min and the “Elimination (β) half-life” value is reported as 70.8 (67.2 - 74.8) min. Also, in series [2] (setting [4]), the “Distribution rate, b” value was 0.211 (0.197 - 0.224) min^-1 and the “Elimination rate, d” value was 0.0097 (0.0093 - 0.0103) min^-1.

With “IRDye®700DX [IRD700, reference compound]”, in series [2] (setting [5]), the “Distribution rate, b” value was 0.42 (0.36 - 0.47) min^−1 and the “Elimination rate, d” value is given as 0.054 (0.051 - 0.057) min^−1.
